Source: paper PMC3443293 (Nature structural & molecular biology, 2012)
Changes are numbered by the printed parent chain.

B1: mouse nectin-2 ectodomain (D1-D3) (domain or fragment)
chain: QDVRVRVLPEVRGRLGGTVELPCHLLPPTTERVSQVTWQRLDGTVVAAFHPSFGVDFPNSQFSKDRLSFVRARPETNADLRDATLAFRGLRVEDEGNYTCEFATFPNGTRRGVTWLRVIAQPENHAEAQEVTIGPQSVAVARCVSTGGRPPARITWISSLGGEAKDTQEPGIQAGTVTIISRYSLVPVGRADGVKVTCRVEHESFEEPILLPVTLSVRYPPEVSISGYDDNWYLGRSEAILTCDVRSNPEPTDYDWSTTSGVFPASAVAQGSQLLVHSVDRMVNTTFICTATNAVGTGRAEQVILVRESP
modifications: natively glycosylated
B2: mouse nectin-2 D1-2 fragment (domain or fragment)
chain: QDVRVRVLPEVRGRLGGTVELPCHLLPPTTERVSQVTWQRLDGTVVAAFHPSFGVDFPNSQFSKDRLSFVRARPETNADLRDATLAFRGLRVEDEGNYTCEFATFPNGTRRGVTWLRVIAQPENHAEAQEVTIGPQSVAVARCVSTGGRPPARITWISSLGGEAKDTQEPGIQAGTVTIISRYSLVPVGRADGVKVTCRVEHESFEEPILLPVTLSVRY
modifications: natively glycosylated (N-linked glycans)
B3: human nectin-2 ectodomain (D1-D3) (domain or fragment)
chain: QDVRVQVLPEVRGQLGGTVELPCHLLPPVPGLYISLVTWQRPDAPANHQNVAAFHPKMGPSFPSPKPGSERLSFVSAKQSTGQDTEAELQDATLALHGLTVEDEGNYTCEFATFPKGSVRGMTWLRVIAKPKNQAEAQKVTFSQDPTTVALCISKEGRPPARISWLSSLDWEAKETQVSGTLAGTVTVTSRFTLVPSGRADGVTVTCKVEHESFEEPALIPVTLSVRYPPEVSISGYDDNWYLGRTDATLSCDVRSNPEPTGYDWSTTSGTFPTSAVAQGSQLVIHAVDSLFNTTFVCTVTNAVGMGRAEQVIFVRETP
modifications: natively glycosylated
B4: human nectin-4 ectodomain (D1-D3) (domain or fragment)
chain: GELETSDVVTVVLGQDAKLPCFYRGDSGEQVGQVAWARVDAGEGAQELALLHSKYGLHVSPAYEGRVEQPPPPRNPLDGSVLLRNAVQADEGEYECRVSTFPAGSFQARLRLRVLVPPLPSLNPGPALEEGQGLTLAASCTAEGSPAPSVTWDTEVKGTTSSRSFKHSRSAAVTSEFHLVPSRSMNGQPLTCVVSHPGLLQDQRITHILHVSFLAEASVRGLEDQNLWHIGREGAMLKCLSEGQPPPSYNWTRLDGPLPSGVRVDGDTLGFPPLTTEHSGIYVCHVSNEFSSRDSQVTVDVLDPQ
modifications: natively glycosylated
B5: mouse nectin-1 ectodomain (D1-D3) (domain or fragment)
chain: QVVQVNDSMYGFIGTDVVLHCSFANPLPSVKITQVTWQKASNGSKQNMAIYNPTMGVSVLPPYEKRVEFLRPSFIDGTIRLSGLELEDEGMYICEFATFPTGNRESQLNLTVMAKPTNWIEGTRAVLRARKGQDDKVLVATCTSANGKPPSAVSWETRLKGEAEYQEIRNPNGTVTVISRYRLVPSREAHRQSLACIVNYHLDRFRESLTLNVQYEPEVTIEGFDGNWYLQRTDVKLTCKADANPPATEYHWTTLNGSLPKGVEAQNRTLFFRGPITYSLAGTYICEATNPIGTRSGQVEVNITEFP
modifications: natively glycosylated
B6: mouse nectin-4 ectodomain (D1-D3) (domain or fragment)
chain: GELETSDVVTVVLGQDAKLPCFYRGDPDEQVGQVAWARVDPNEGIRELALLHSKYGLHVNPAYEDRVEQPPPPRDPLDGSVLLRNAVQADEGEYECRVSTFPAGSFQARMRLRVLVPPLPSLNPGPPLEEGQGLTLAASCTAEGSPAPSVTWDTEVKGTQSSRSFTHPRSAAVTSEFHLVPSRSMNGQPLTCVVSHPGLLQDRRITHTLQVAFLAEASVRGLEDQNLWQVGREGATLKCLSEGQPPPKYNWTRLDGPLPSGVRVKGDTLGFPPLTTEHSGVYVCHVSNELSSRDSQVTVEVLDPEDPG
modifications: natively glycosylated
B7: human nectin-1 ectodomain (D1-D3) F129D (domain or fragment)
chain: QVVQVNDSMYGFIGTDVVLHCSFANPLPSVKITQVTWQKSTNGSKQNVAIYNPSMGVSVLAPYRERVEFLRPSFTDGTIRLSRLELEDEGVYICEFATDPTGNRESQLNLTVMAKPTNWIEGTQAVLRAKKGQDDKVLVATCTSANGKPPSVVSWETRLKGEAEYQEIRNPNGTVTVISRYRLVPSREAHQQSLACIVNYHMDRFKESLTLNVQYEPEVTIEGFDGNWYLQRMDVKLTCKADANPPATEYHWTTLNGSLPKGVEAQNRTLFFKGPINYSLAGTYICEATNPIGTRSGQVEVNITEFP
modifications: natively glycosylated
B8: human nectin-1 ectodomain (D1-D3) (domain or fragment)
chain: B7 chain with D99F
modifications: natively glycosylated (N-linked glycans)
B9: human nectin-4 D1-2 fragment (domain or fragment)
chain: GELETSDVVTVVLGQDAKLPCFYRGDSGEQVGQVAWARVDAGEGAQELALLHSKYGLHVSPAYEGRVEQPPPPRNPLDGSVLLRNAVQADEGEYECRVSTFPAGSFQARLRLRVLVPPLPSLNPGPALEEGQGLTLAASCTAEGSPAPSVTWDTEVKGTTSSRSFKHSRSAAVTSEFHLVPSRSMNGQPLTCVVSHPGLLQDQRITHILHVS

Target: the molecule itself
Assay: AUC

| Binder | Kd | stoichiometry N |
| --- | --- | --- |
| B1 | 1.09 µM | 2 |
| B2 | 7.62 µM | 2 |
| B3 | 0.392 µM | 2 |
| B4 | 153 µM | 2 |
| B5 | 22.6 µM | 2 |
| B6 | 278 µM | 2 |
| B7 | 820 µM | 2 |
| B8 | 17.5 µM | 2 |

target: human nectin-3 ectodomain (D1-D3) (human, UniProt Q9NQS3 58-359, natively glycosylated (N-linked glycans)); assay: SPR

| Binder | binding result |
| --- | --- |
| B3 | binds |
| B8 | binds |

target: B8; assay: AUC

| Binder | binding result |
| --- | --- |
| B4 | binds |

Target: the molecule itself
Assay: crystal structure

| Binder | binding result |
| --- | --- |
| B9 | binds |
